Reference: patent US20220380463A1 (Adimab, published 2022)
Changes are numbered by the printed parent chain.

Molecular target: T1, Cynomolgus CD3εδ Fc heterodimer (Cy CD3ε Fc / CD3δ Fc-HIS) (cynomolgus, UniProt Q95LI8 22-100)
T1 chain 1: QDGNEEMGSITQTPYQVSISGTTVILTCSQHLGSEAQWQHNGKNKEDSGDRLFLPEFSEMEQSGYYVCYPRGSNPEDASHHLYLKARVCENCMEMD
T1 chain 2: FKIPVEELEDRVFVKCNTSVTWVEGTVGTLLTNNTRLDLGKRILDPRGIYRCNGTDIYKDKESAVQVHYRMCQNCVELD
Assay: BLI (Octet), IgG on AHC sensor, pH 6.0

B1: SAD10320_P02_E05 (ADI-57366) (antibody, V domains shown)
VH: QVQLVQSGAEVKKPGASVKVSCKASGFNIKDYYMHWVRQAPGQRLEWMGWIDLENANTIYDAKFQGRVTITRDTSASTAYMELSSLRSEDTAVYYCARDMHGRYFYDVWGQGTLVTVSS
VL: DIVMTQSPDSLAVSLGERATINCKSSQSLLNARTGKNYLAWYQQKPGQPPKLLIYWASTRESGVPDRFSGSGSGTDFTLTISSLQAEDVAVYYCKQSEHRRTFGGGTKVEIK
notes: IgG; also called Ab78
- koff: 0.00318 s⁻¹

B2: SAD10320_P02_H06 (ADI-57372) (antibody, V domains shown)
VH: B1 VH with M100A, H101Y, Y104N, F105H
VL: B1 VL with N37S, E98Y, H99V, R100H
notes: IgG; also called Ab89
- koff: 0.00281 s⁻¹

B3: SAD10320_P03_D08 (ADI-57377) (antibody, V domains shown)
VH: B1 VH with M100A, H101Y, R103H, Y104Q
VL: B1 VL with E98Y, R100T
notes: IgG; also called Ab95
- koff: 0.00194 s⁻¹

B4: SAD10319_P05_A01 (ADI-57395) (antibody, V domains shown)
VH: QVQLVQSGAEVKKPGASVKVSCKASGYTFTAYTMHWVRQAPGHRLEWMGWINPDTGATDYSQKFQGRVTITRDTSASTAYMELSSLRSEDTAVYYCARDAYHHYFYDVWGQGTLVTVSS
VL: B1 VL with E98Y, H99S
notes: IgG; also called Ab121
- koff: 0.0251 s⁻¹

B5: SAD10320_P04_A11 (ADI-57386) (antibody, V domains shown)
VH: B1 VH with E46Q, M100A, H101R, G102H
VL: B1 VL with E98Y, H99S, R100H, R101G
notes: IgG; also called Ab109
- koff: 0.00741 s⁻¹

B6: SAD10320_P04_A10 (ADI-57382) (antibody, V domains shown)
VH: B1 VH with E46D, M100A, H101Y, R103H, Y104D
VL: B1 VL with E98Y, H99S
notes: IgG; also called Ab103
- koff: 0.0144 s⁻¹

B7: SAD10320_P04_A12 (ADI-57391) (antibody, V domains shown)
VH: B1 VH with M100A, H101Y, R103H, Y104V
VL: B1 VL with E98Y, R100H
notes: IgG; also called Ab117
- koff: 0.0168 s⁻¹

B8: SAD10319_P05_A02 (ADI-57396) (antibody, V domains shown)
VH: B4 VH with T30A, A31S, T33D, H43Q, N52D, P53A, D54G, D59V, H102G, V108H
VL: B1 VL with E98Y, H99S
notes: IgG; also called Ab122
- koff: 0.0246 s⁻¹

B9: SAD10320_P04_F11 (ADI-57389) (antibody, V domains shown)
VH: B1 VH with M100A, H101Y, R103H, Y104E
VL: B1 VL with S97G, E98H, H99S
notes: IgG; also called Ab112
- koff: 0.00192 s⁻¹

B10: SAD10319_P05_B04 (ADI-57401) (antibody, V domains shown)
VH: B4 VH with A31S, Y32A, T33V, H43Q, W50D, P53A, D54G, H102G, H103R
VL: B1 VL with E98Y, H99S
notes: IgG; also called Ab128
- koff: 0.00258 s⁻¹

B11: SAD10320_P04_D10 (ADI-57384) (antibody, V domains shown)
VH: B1 VH with K23E, L45P, M100A, H101Y, R103H, Y104V
VL: B1 VL with E98Y, H99L, R100H
notes: IgG; also called Ab105
- koff: 0.0171 s⁻¹

B12: SAD10320_P04_E12 (ADI-57393) (antibody, V domains shown)
VH: B1 VH with M100A, H101Y, R103H, Y104T
VL: B1 VL with E98Y, R100V
notes: IgG; also called Ab119
- koff: 0.0108 s⁻¹

B13: SAD10320_P04_F12 (ADI-57394) (antibody, V domains shown)
VH: B1 VH with W47R, M100A, H101Y, R103H, Y104E
VL: B1 VL with E98Y, H99S
notes: IgG; also called Ab120
- koff: 0.00259 s⁻¹

B14: SAD10319_P05_B03 (ADI-57400) (antibody, V domains shown)
VH: B4 VH with T30E, A31S, T33V, H43Q, N52H, P53S, D54G, A57N, H102G, V108H
VL: B1 VL with E98Y, H99S
notes: IgG; also called Ab127
- koff: 0.0346 s⁻¹

B15: SAD10320_P03_F09 (ADI-48656) (antibody, V domains shown)
VH: B1 VH with M100A, H101Y, R103H, Y104D
VL: B1 VL with E98Y
notes: IgG; also called Ab101
- koff: 0.00719 s⁻¹

B16: SAD10320_P04_G11 (ADI-57390) (antibody, V domains shown)
VH: B1 VH with M100A, H101Y, G102R, R103H, Y104E
VL: B1 VL with E98Y, H99Y, R100H
notes: IgG; also called Ab115
- koff: 0.00276 s⁻¹

B17: SAD10320_P03_F08 (ADI-57378) (antibody, V domains shown)
VH: B1 VH with M100A, H101Y, R103H, Y104D
VL: B1 VL with T34P, E98Y, H99S
notes: IgG; also called Ab96
- koff: 0.00268 s⁻¹

B18: SAD10319_P05_D05 (ADI-57410) (antibody, V domains shown)
VH: B4 VH with T30A, A31D, T33A, W50D, N52I, P53A, D54G, D59K, A100H, H102G
VL: B1 VL with E98Y, H99S
notes: IgG; also called Ab138
- koff: 0.0158 s⁻¹

B19: SAD10320_P04_E10 (ADI-48657) (antibody, V domains shown)
VH: B1 VH with L45P, M100A, H101Y, R103H, Y104D
VL: B1 VL with E98Y, H99S
notes: IgG; also called Ab106
- koff: 0.00258 s⁻¹

B20: SAD10320_P03_E07 (ADI-57374) (antibody, V domains shown)
VH: B1 VH with M100A, H101V, G102H
VL: B1 VL with E98Y, R100P
notes: IgG; also called Ab92
- koff: 0.00699 s⁻¹

B21: SAD10319_P05_D03 (ADI-57408) (antibody, V domains shown)
VH: B4 VH with A31D, Y32D, T33A, N52D, P53A, D54G, A57N, D59Y, R98H, H102G
VL: B1 VL with E98Y, H99S
notes: IgG; also called Ab135
- koff: 0.0233 s⁻¹

B22: SAD10319_P05_B02 (ADI-57399) (antibody, V domains shown)
VH: B4 VH with A31S, T33N, H43P, R44S, W50S, N52D, P53A, D54G
VL: B1 VL with E98Y, H99S
notes: IgG; also called Ab126
- koff: 0.00411 s⁻¹

B23: SAD10320_P04_C10 (ADI-57383) (antibody, V domains shown)
VH: B1 VH with M100A, H101Y, R103H, Y104A
VL: B1 VL with E98Y, R100Q
notes: IgG; also called Ab104
- koff: 0.0187 s⁻¹

B24: SAD10320_P03_A09 (ADI-57380) (antibody, V domains shown)
VH: B1 VH with M100A, H101Y, R103H, Y104V
VL: B1 VL with E98S
notes: IgG; also called Ab98
- koff: 0.0029 s⁻¹

B25: SAD10320_P02_A06 (ADI-57367) (antibody, V domains shown)
VH: B1 VH with E46P, M100A, G102E
VL: B1 VL with E98H, H99L
notes: IgG; also called Ab82
- koff: 0.00264 s⁻¹

B26: SAD10319_P05_C03 (ADI-57404) (antibody, V domains shown)
VH: B4 VH with A31S, T33N, H43Q, W50S, N52D, P53A, D54G
VL: B1 VL with E98Y, H99S
notes: IgG; also called Ab131
- koff: 0.00327 s⁻¹

B27: SAD10319_P05_C05 (ADI-57405) (antibody, V domains shown)
VH: B4 VH with A31S, T33N, H43P, N52D, P53A, D54G, D59H
VL: B1 VL with E98Y, H99S
notes: IgG; also called Ab132
- koff: 0.00821 s⁻¹

B28: SAD10320_P03_H08 (ADI-57379) (antibody, V domains shown)
VH: B1 VH with M100A, H101Y, R103H, Y104V
VL: B1 VL with R33S, G35A, E98Y, H99R, R100H
notes: IgG; also called Ab97
- koff: 0.015 s⁻¹

B29: SAD10320_P04_D11 (ADI-57387) (antibody, V domains shown)
VH: B1 VH with E46Q, M100A, H101Y, R103H, Y104V
VL: B1 VL with E98Y, R100H
notes: IgG; also called Ab110
- koff: 0.00338 s⁻¹

B30: SAD10319_P05_D02 (ADI-57407) (antibody, V domains shown)
VH: B4 VH with T30D, A31S, H43P, W50S, P53A, D54G, A57N, A100H, H102G
VL: B1 VL with E98Y, H99S
notes: IgG; also called Ab134
- koff: 0.0241 s⁻¹

B31: SAD10320_P04_D12 (ADI-57392) (antibody, V domains shown)
VH: B1 VH with M100A, H101Y, R103H, Y104D
VL: B1 VL with E98Y, H99S, R100H
notes: IgG; also called Ab118
- koff: 0.00259 s⁻¹

B32: SAD10320_P02_E06 (ADI-57369) (antibody, V domains shown)
VH: B1 VH with G8E, E46Q, M100A, H101Y, R103H, Y104G
VL: B1 VL with T34P, E98Y, H99S
notes: IgG; also called Ab86
- koff: 0.0303 s⁻¹

B33: SAD10319_P05_B05 (ADI-57402) (antibody, V domains shown)
VH: B4 VH with T30V, A31D, T33A, H43Q, N52D, P53A, D54G, A57N, Y101H, H102G
VL: B1 VL with E98Y, H99S
notes: IgG; also called Ab129
- koff: 0.00654 s⁻¹

B34: SAD10320_P03_B07 (ADI-57373) (antibody, V domains shown)
VH: B1 VH with E46A, M100A, H101Y, R103H, Y104D
VL: B1 VL with E98Y, H99S
notes: IgG; also called Ab90
- koff: 0.00224 s⁻¹

B35: SAD10320_P04_G10 (ADI-48658) (antibody, V domains shown)
VH: B1 VH with M100A, H101Y, R103H, Y104D
VL: B1 VL with E98Y, H99S
notes: IgG; also called Ab108
- koff: 0.0189 s⁻¹

B36: SAD10320_P04_F10 (ADI-57385) (antibody, V domains shown)
VH: B1 VH with R44T, E46D, M100A, H101Y, Y104N, F105H
VL: B1 VL with T34P, E98Y, H99L, R100H
notes: IgG; also called Ab107
- koff: 0.00239 s⁻¹

B37: SAD10319_P05_A03 (ADI-57397) (antibody, V domains shown)
VH: QVQLVQSGAEVKKPGASVKVSCKASGYTFNDYAMHWVRQAPGQRLEWMGWIDAGTGNTYYSQKFQGRVTITRDTSASTAYMELSSLRSEDTAVYYCARDAHGHYFYDVWGQGTLVTVSS
VL: B1 VL with E98Y, H99S
notes: IgG; also called Ab123
- koff: 0.0127 s⁻¹

B38: SAD10319_P05_A05 (ADI-57398) (antibody, V domains shown)
VH: B4 VH with H43Q
VL: B1 VL with E98Y, H99S
notes: IgG; also called Ab124
- koff: 0.0118 s⁻¹

B39: SAD10319_P05_C01 (ADI-57403) (antibody, V domains shown)
VH: B37 VH with N30T, Y32D, R98H, H101Y
VL: B1 VL with E98Y, H99S
notes: IgG; also called Ab130
- koff: 0.013 s⁻¹

B40: SAD10320_P03_C08 (ADI-57376) (antibody, V domains shown)
VH: B1 VH with K23E, R44T, E46A, M100A, H101Y, R103H, Y104V
VL: B1 VL with E98Y, H99L, R100H
notes: IgG; also called Ab94
- koff: 0.0152 s⁻¹

B41: SAD10320_P03_C09 (ADI-57381) (antibody, V domains shown)
VH: B1 VH with K23E, M100A, H101Y, R103H, Y104V
VL: B1 VL with E98Y, H99L, R100H
notes: IgG; also called Ab99
- koff: 0.0051 s⁻¹

B42: SAD10319_P05_D04 (ADI-57409) (antibody, V domains shown)
VH: B4 VH with A31S, Y32D, T33Y, H43Q, P53A, D54G, R98H, H102G, H103R, F105H
VL: B1 VL with E98Y, H99S
notes: IgG; also called Ab137
- koff: 0.022 s⁻¹

B43: SAD10320_P02_D06 (ADI-57368) (antibody, V domains shown)
VH: B1 VH with L45P, E46A, M100A, H101Y, R103H, Y104G
VL: B1 VL with E98Y, H99G, R100H
notes: IgG; also called Ab85
- koff: 0.00621 s⁻¹

B44: SAD10319_P05_D01 (ADI-57406) (antibody, V domains shown)
VH: B37 VH with N30T, D31E, A33D, R44T, N57A, Y59V, H101Y, H103R, V108H
VL: B1 VL with E98Y, H99S
notes: IgG; also called Ab133
- koff: 0.00929 s⁻¹

B45: SAD10320_P04_E11 (ADI-57388) (antibody, V domains shown)
VH: B1 VH with M100A, H101Y, R103H, Y104D
VL: B1 VL with E98Y, H99G, R100H
notes: IgG; also called Ab111
- koff: 0.00297 s⁻¹
